From patent publication US20160222105A1 (MacroGenics, published 2016)
Changes are numbered by the printed parent chain.

How the values were obtained:
[1] = target: T1, soluble human gpA33 with 6His (human, UniProt Q99795 22-235); assay: SPR (BIAcore 3000), captured gpA33-His, diabody as analyte, 1:1 Langmuir global fit
T1 construct: range 1-235; Expressed in CHO-S cells; The stated range starts at residue 1 and so includes the signal peptide; also called hgpA33-His
T1 sequence: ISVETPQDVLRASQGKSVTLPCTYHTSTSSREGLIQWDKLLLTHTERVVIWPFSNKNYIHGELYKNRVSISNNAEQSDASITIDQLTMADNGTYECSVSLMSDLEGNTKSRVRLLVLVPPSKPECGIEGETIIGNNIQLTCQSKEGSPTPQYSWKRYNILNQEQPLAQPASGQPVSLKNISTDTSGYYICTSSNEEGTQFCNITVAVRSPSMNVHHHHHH

[2] = target: T2, soluble cynomolgus monkey gpA33 with 6His (cynomolgus monkey, UniProt G7NU40 17-329); assay: as above
T2 construct: range 1-314; The range 1-314 is as printed; also called cynogpA33-His
T2 sequence: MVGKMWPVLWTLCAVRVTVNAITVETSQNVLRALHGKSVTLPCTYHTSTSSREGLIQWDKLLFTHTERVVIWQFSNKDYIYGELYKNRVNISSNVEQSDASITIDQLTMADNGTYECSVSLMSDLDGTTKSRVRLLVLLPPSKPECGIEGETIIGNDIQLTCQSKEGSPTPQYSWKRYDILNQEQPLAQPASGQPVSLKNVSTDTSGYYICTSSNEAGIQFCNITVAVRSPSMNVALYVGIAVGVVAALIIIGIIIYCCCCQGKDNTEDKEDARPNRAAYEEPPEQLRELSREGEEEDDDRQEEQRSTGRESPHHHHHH

[3] = target: T3, soluble human CD3ε/CD3δ heterodimer (human); assay: SPR (BIAcore 3000), CD3 immobilized on CM5 chip, diabody as analyte, 1:1 Langmuir global fit
T3 construct: Co-expressed in CHO-S cells; also called hCD3ε/δ
T3 chain 1: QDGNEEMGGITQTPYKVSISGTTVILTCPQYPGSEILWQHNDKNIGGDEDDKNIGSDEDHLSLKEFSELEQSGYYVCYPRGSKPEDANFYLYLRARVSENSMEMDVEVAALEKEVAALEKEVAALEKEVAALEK
T3 chain 2: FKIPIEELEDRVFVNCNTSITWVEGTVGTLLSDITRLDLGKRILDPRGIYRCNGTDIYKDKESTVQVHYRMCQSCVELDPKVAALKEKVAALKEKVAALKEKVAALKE
Procedure: (§1) gpA33×CD3 bi-specific Fc diabody (DART-2 w/Fc Version 1) binding to soluble versions of human and cynomolgus monkey CD3 receptor was analyzed by SPR on a BIAcore 3000 biosensor (GE, Healthcare). Receptors were immobilized on the CM5 sensor chip according to the procedure recommended by the manufacturer. Briefly, the carboxyl groups on the sensor chip surface were activated with an injection of a solution containing 0.2M N-ethyl-N-(3dietylamino-propyl) carbodiimide and 0.05M N-hydroxy-succinimide. Soluble CD3 receptor (1 μg/ml) was then injected over the activated CM5 surface in 10 mM sodium-acetate, pH 5.0, at flow rate 5 μL/min, followed by 1 M ethanolamine for deactivation.
(§2) Binding experiments were performed in HBS-EP buffer, which contains 10 mM HEPES, pH 7.4, 150 mM NaCl, 3 mM EDTA and 0.005% P20 surfactant. Binding of DART-2 w/Fc Version 1 was analyzed (in duplicate) at concentrations of 0, 6.25, 12.5, 25, 50 and 100 nM, injected for 120 sec at a flow rate of 30 μL/min.
(§3) Regeneration of the immobilized receptor surfaces was performed by pulse injection of 10 mM glycine, pH 1.5. Reference curves were obtained by injection of each dilution of DART-2 w/Fc over the treated surface with no immobilized protein. Binding curves at zero concentration were subtracted as a blank. KD values were determined by a global fit of binding curves to the Langmuir 1:1 binding model (BIAevaluation™ software v4.1).

[4] = target: T4, soluble cynomolgus monkey CD3ε/CD3δ heterodimer (cynomolgus monkey); assay: as above
T4 construct: Co-expressed in CHO-S cells; also called cynoCD3ε/δ
T4 chain 1: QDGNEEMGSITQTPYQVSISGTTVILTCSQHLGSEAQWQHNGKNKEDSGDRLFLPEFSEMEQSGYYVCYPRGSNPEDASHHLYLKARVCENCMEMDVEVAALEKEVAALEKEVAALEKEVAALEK
T4 chain 2: T3 chain 2 with I5V, N15K, I20V, S32T, D33N, I34N, T64A, S74N
Procedure: as §1, §2, §3

[5] = target: T5, gpA33 on human cancer cells (human, UniProt Q99795 22-319); assay: cell-based or functional assay
T5 sequence (looked up): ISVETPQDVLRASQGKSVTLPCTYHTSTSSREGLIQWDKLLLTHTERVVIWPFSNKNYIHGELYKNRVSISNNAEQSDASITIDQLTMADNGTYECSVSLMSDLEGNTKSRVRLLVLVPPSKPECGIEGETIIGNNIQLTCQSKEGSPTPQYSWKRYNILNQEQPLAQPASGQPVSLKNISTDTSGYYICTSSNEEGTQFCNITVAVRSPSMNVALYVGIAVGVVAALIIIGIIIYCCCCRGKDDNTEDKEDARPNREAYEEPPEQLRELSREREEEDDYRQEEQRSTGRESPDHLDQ

soluble CD3 fragment = target: T6, soluble CD3 fragment (Homo sapiens (Human), UniProt P07766 23-127; P04234 22-101); assay: sandwich plate assay titled 'shCD3 capture/gpA33 detection': soluble CD3 immobilized, diabody titrated, bound diabody detected with gpA33; the signal needs binding to both CD3 and gpA33
T6 construct: copies: 1 + 1
Procedure: The detection of binding was assessed by the capacity of immobilized antibodies to additionally bind gpA33.

human gpA33 = target: T7, human gpA33 (human, UniProt Q99795 22-235, limits assumed); assay: simultaneous-binding assay; group statement
T7 construct: There it is printed only as gpA33; also called A33 antigen
T7 sequence (looked up): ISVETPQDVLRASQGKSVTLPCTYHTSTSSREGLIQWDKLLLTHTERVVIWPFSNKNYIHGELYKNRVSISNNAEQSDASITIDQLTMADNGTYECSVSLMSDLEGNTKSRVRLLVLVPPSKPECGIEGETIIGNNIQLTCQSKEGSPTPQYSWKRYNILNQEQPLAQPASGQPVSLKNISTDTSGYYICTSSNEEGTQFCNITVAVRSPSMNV

B1: gpA33 × CD3 bi-specific monovalent diabody having an IgG Fc Domain version 1 (DART-2 w/Fc Version 1) (bispecific antibody)
chain 1: DIQLTQSPSFLSASVGDRVTITCSARSSISFMYWYQQKPGKAPKLLIYDTSNLASGVPSRFSGSGSGTEFTLTISSLEAEDAATYYCQQWSSYPLTFGQGTKLEIKGGGSGGGGEVQLVESGGGLVQPGGSLRLSCAASGFTFSTYAMNWVRQAPGKGLEWVGRIRSKYNNYATYYADSVKDRFTISRDDSKNSLYLQMNSLKTEDTAVYYCVRHGNFGNSYVSWFAYWGQGTLVTVSSGGCGGGEVAALEKEVAALEKEVAALEKEVAALEKGGGDKTHTCPPCPAPEAAGGPSVFLFPPKPKDTLMISRTPEVTCVVVDVSHEDPEVKFNWYVDGVEVHNAKTKPREEQYNSTYRVVSVLTVLHQDWLNGKEYKCKVSNKALPAPIEKTISKAKGQPREPQVYTLPPSREEMTKNQVSLWCLVKGFYPSDIAVEWESNGQPENNYKTTPPVLDSDGSFFLYSKLTVDKSRWQQGNVFSCSVMHEALHNHYTQKSLSLSPGK
chain 2: QAVVTQEPSLTVSPGGTVTLTCRSSTGAVTTSNYANWVQQKPGQAPRGLIGGTNKRAPWTPARFSGSLLGGKAALTITGAQAEDEADYYCALWYSNLWVFGGGTKLTVLGGGGSGGGGQVQLVQSGAEVKKPGASVKVSCKASGYTFTGSWMNWVRQAPGQGLEWIGRIYPGDGETNYNGKFKDRVTITADKSTSTAYMELSSLRSEDTAVYYCARIYGNNVYFDVWGQGTTVTVSSGGCGGGKVAALKEKVAALKEKVAALKEKVAALKE
chain 3: not shown
notes: also called DART-2 with Fc
- Kd [1]: 2.2 nM
- koff [1]: 0.0009 s⁻¹
- kon [1]: 420000 M⁻¹ s⁻¹
- Kd [2]: 12 nM
- koff [2]: 0.0028 s⁻¹
- kon [2]: 230000 M⁻¹ s⁻¹
- Kd [3]: 23 nM
- koff [3]: 0.0035 s⁻¹
- kon [3]: 150000 M⁻¹ s⁻¹
- Kd [4]: 26 nM
- koff [4]: 0.0034 s⁻¹
- kon [4]: 130000 M⁻¹ s⁻¹

B2: gpA33 × CD3 bi-specific monovalent diabody (DART-1) (bispecific antibody)
chain 1: QAVVTQEPSLTVSPGGTVTLTCRSSTGAVTTSNYANWVQQKPGQAPRGLIGGTNKRAPWTPARFSGSLLGGKAALTITGAQAEDEADYYCALWYSNLWVFGGGTKLTVLGGGGSGGGGQVQLQQSGPELVKPGASVKISCKASGYTFSGSWMNWVKQRPGQGLEWIGRIYPGDGETNYNGKFKDKATLTADKSSTTAYMELSSLTSVDSAVYFCARIYGNNVYFDVWGAGTTVTVSSGGCGGGEVAALEKEVAALEKEVAALEKEVAALEK
chain 2: QIVLTQSPAIMSASPGERVTMTCSARSSISFMYWYQQKPGSSPRLLIYDTSNLASGVPVRFSGSGSGTSYSLTISRMEAEDAATYYCQQWSSYPLTFGSGTKLELKRGGGSGGGGEVQLVESGGGLVQPGGSLRLSCAASGFTFNTYAMNWVRQAPGKGLEWVARIRSKYNNYATYYADSVKDRFTISRDDSKNSLYLQMNSLKTEDTAVYYCVRHGNFGNSYVSWFAYWGQGTLVTVSSGGCGGGKVAALKEKVAALKEKVAALKEKVAALKE
notes: Disulfide-bonded heterodimer with murine anti-gpA33 variable domains; also called gpA33 × CD3 DART 1
- EC50 of redirected killing, ASPC-1 cells, E:T 10:1 [5]: 1.14 ng/mL
- EC50 of redirected killing, Colo205 cells, E:T 10:1 [5]: 0.585 ng/mL
- EC50 of redirected killing, Colon CSLC cells, human PBMC E:T 25:1 [5]: 0.901 ng/mL
- EC50 (read off the curve) (soluble CD3 fragment): ~200 ng/mL

B3: gpA33 × CD3 bi-specific monovalent diabody having an IgG Fc Domain version 2 (DART-2 w/Fc Version 2) (bispecific antibody)
chain 1: DKTHTCPPCPAPEAAGGPSVFLFPPKPKDTLMISRTPEVTCVVVDVSHEDPEVKFNWYVDGVEVHNAKTKPREEQYNSTYRVVSVLTVLHQDWLNGKEYKCKVSNKALPAPIEKTISKAKGQPREPQVYTLPPSREEMTKNQVSLWCLVKGFYPSDIAVEWESNGQPENNYKTTPPVLDSDGSFFLYSKLTVDKSRWQQGNVFSCSVMHEALHNHYTQKSLSLSPGKAPSSSPMEDIQLTQSPSFLSASVGDRVTITCSARSSISFMYWYQQKPGKAPKLLIYDTSNLASGVPSRFSGSGSGTEFTLTISSLEAEDAATYYCQQWSSYPLTFGQGTKLEIKGGGSGGGGEVQLVESGGGLVQPGGSLRLSCAASGFTFSTYAMNWVRQAPGKGLEWVGRIRSKYNNYATYYADSVKDRFTISRDDSKNSLYLQMNSLKTEDTAVYYCVRHGNFGNSYVSWFAYWGQGTLVTVSSGGCGGGKVAALKEKVAALKEKVAALKEKVAALKE
chain 2: QAVVTQEPSLTVSPGGTVTLTCRSSTGAVTTSNYANWVQQKPGQAPRGLIGGTNKRAPWTPARFSGSLLGGKAALTITGAQAEDEADYYCALWYSNLWVFGGGTKLTVLGGGGSGGGGQVQLVQSGAEVKKPGASVKVSCKASGYTFTGSWMNWVRQAPGQGLEWIGRIYPGDGETNYNGKFKDRVTITADKSTSTAYMELSSLRSEDTAVYYCARIYGNNVYFDVWGQGTTVTVSSGGCGGGEVAALEKEVAALEKEVAALEKEVAALEK
chain 3: not shown
- binding result (human gpA33): binds
